Earlier results, collected in PMC3535496.
pKd: −log10 of the molar value.

Target: Jun TAD (Homo sapiens) (UniProt P05412)
UniProt P05412, sequence (P05412 47-89): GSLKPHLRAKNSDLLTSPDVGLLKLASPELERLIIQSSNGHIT

pKd: 4.52
Substance: CBP KIX (from UniProt Q92793)
